Assay results from US9205136B2, “Human aminoacyl-tRNA synthetase polypeptides useful for the regulation of angiogenesis” (THE SCRIPPS RESEARCH INSTITUTE, priority 2000, dated 2015).
“Also recorded” adds a separate entry of the source.

How the values were obtained:
[1] = system: MPs; assay: MP chemotaxis assay (ChemoTX microchemotaxis chamber); format: cell-based, human; conditions: sample proteins 1 nM, 3 hours
Method: (§1) Cells for the various cytokine assays described were prepared from acid citrate dextrose-treated blood of normal healthy volunteers. Human PMNs were isolated from the blood by centrifugation (700×g) over Histopaque 1077 and 1119 (Sigma). […] This procedure was repeated twice. Human MPs were isolated by centrifugation on Histopaque 1077 (Sigma). The mononuclear fraction was obtained, washed twice in Hanks' balanced salt solution, resuspended in RPMI-1640 medium (Sigma) containing 10% heat-inactivated fetal bovine serum (Sigma), plated in tissue culture flasks, and incubated in a 6% CO2 incubator at 37° C. for 1-2 hours (Kumagai et al., 1979, J. Immunol. Methods 29:17-25). Nonadherent cells were removed by washing the flasks three times with Hanks' balanced salt solution, and adherent cells were harvested by incubation with calcium-magnesium free phosphate-buffered saline containing 2 mM EDTA for 15 minutes at 4° C., followed by extensive washing.
MP chemotaxis assays were performed in a ChemoTX microchemotaxis chamber (Neuro Probe, Gaithersburg, Md.) containing polycarbonate filters (5 μm pores) with polyvinylpyrrolidone (PVP). MPs were suspended in RPMI-1640 medium containing 1% heat-inactivated fetal bovine serum, and 10^4 cells were added to the upper chamber. Sample proteins (1 nM) were added to the lower compartment of chemotaxis chambers, and the chambers were incubated for 3 hours. After incubation, nonmigrating cells were removed, membranes were fixed in methanol, and migrating cells were visualized with the HEMACOLOR™ stain set (EM Diagnostic Systems, Gibbstown, N.J.). Migrating cells were counted in high-power fields (HPFs). Each determination shown in FIG. 2 represents the average of nine HPF measurements.

[2] = system: MPs; assay: MP TNFα production (ELISA of culture supernatant); format: cell-based, human; conditions: 1 nM sample protein, 14 hours
Method: as §1
MP TNFα production was examined following incubation of 10^5 MPs with 1 nM of sample protein for 14 hours. Aliquots of the culture supernatant were then assayed for TNFα production using a TNFα enzyme-linked immunosorbent assay kit (Sigma). Each determination shown in FIG. 2 represents the mean of four measurements from at least three independent experiments.

[3] = system: MPs; assay: MP tissue factor production (Factor VIIa-dependent Factor Xa formation); format: cell-based, human; conditions: 1 nM sample protein, 4 hours
Method: as §1
MP tissue factor production was examined following incubation of 10^4 MPs with 1 nM of sample protein for 4 hours. Tissue factor activity was then inferred from measurements of Factor VIIa-dependent Factor Xa formation (Wolfson et al., 1990 J. Chromatogr., 503:277-81). Each determination shown in FIG. 2 represents the mean of four measurements from at least three independent experiments.

[4] = system: PMNs; assay: PMN release of myeloperoxidase; format: cell-based, human; conditions: 1 nM sample protein, 60 minutes
Method: as §1
PMN release of myeloperoxidase was examined following incubation of 3×10^6 PMNs per mL with 1 nM of sample protein for 60 minutes. The generation of peroxidase was then measured by the reduction of 3,3′,5,5′-tetramethylbenzidine (Barker et al., 1982, FEBS Lett. 150:419-23). Peroxidase activity is shown in FIG. 3 as the percent of total peroxidase activity where 100% peroxidase activity is defined as the activity observed for 3×10^6 PMNs following exposure to 10 μM phorbol ester for 60 minutes. Each determination shown in FIG. 3 represents the mean of four measurements from at least three independent experiments.

[5] = system: PMNs; assay: PMN chemotaxis assay (ChemoTX microchemotaxis chamber); format: cell-based, human; conditions: for PMN chemotaxis (PMN migration): sample proteins 1 nM, 45 min
Method: as §1
PMN chemotaxis assays were performed in a ChemoTX microchemotaxis chamber (described herein). Sample proteins (1 nM) were added to the lower compartment of chemotaxis chambers, and 10^4 PMNs were added to the upper compartment. Chambers were incubated for 45 min, and migrating cells were counted in HPFs. Each determination shown in FIG. 2 represents the average of nine HPF measurements.

[6] = system: PMNs; assay: 125I-human mini TyrRS binding and competition assay on PMNs; conditions: 10 nM 125I-mini TyrRS, 200-fold molar excess of unlabeled ligand, on ice 2 hours
Method: The interaction of human mini TyrRS and PMNs was examined in binding studies using radioiodinated TyrRS molecules (Moser et al., 1993, J. Biol. Chem. 268:7125-28). Custom radioiodination of mini TyrRS with was performed by Research & Diagnostic Antibody (Richmond, Calif.). In the binding assays, 2×10^6 PMNs were first suspended in 120 μl of RPMI-1640 medium containing 20 mM Hepes (pH 7.4) and 10 mg/ml bovine serum albumin. […] Following incubation, cells were separated from unbound radioactivity by centrifugation at approximately 8000×g for 2 minutes through 500 μL, of a 10% sucrose/phosphate-buffered saline (PBS) cushion. The supernatant was aspirated, and the cell sediment was resuspended using EcoLite (ICN Biomedicals, Irvine, Calif.) and analyzed in a scintillation counter.
Following incubation, cells were separated from unbound radioactivity as described herein.

[7] = system: human umbilical vein endothelial cells (HUVECs); assay: HUVEC migration assay (modified Boyden chamber); format: cell-based; conditions: 50 nM TyrRS molecule or 0.5 nM VEGF165, 6 hours
Method: In contrast, α-chemokines lacking the ELR motif act as angiostatic factors (id.). In order to evaluate the angiogenic activity of TyrRS, which contains the ELR motif, human full-length TyrRS and human mini TyrRS were first examined for their ability to induce endothelial cell migration. Such angiogenic assays were performed using human umbilical vein endothelial cells (HUVECs) (Clonetics, Walkersville, Md.). Cells were maintained in EGM-2® BULLETKIT® medium (Clonetics) in an atmosphere of 6% CO2 at 37° C. according to the supplier's instructions.
Cell migration assays were performed using the modified Boyden chamber (6.5 mm Transwells) with polycarbonate membranes (8.0 μm pore size) (Costar Corp., Cambridge, Mass.) (Masood et al., 1999, Blood 93:1038-44). Wells were coated overnight with 25 μg/mL human fibronectin (Biosource International, Camarillo, Calif.) in PBS and then allowed to air-dry. HUVECs were suspended in Dulbecco's modified Eagle's medium (DMEM) (Gibco-BRL, Gaithersburg, Md.) containing 0.1% BSA (Sigma) and 2×10^5 cells per well were added to the upper chamber. The chemotactic stimulus (50 nM of a given TyrRS molecule or 0.5 nM of human vascular endothelial growth factor-165 (VEGF165) (Biosource International, Camarillo, Calif.)) was placed in the lower chamber, and the cells were allowed to migrate for 6 hours at 37° C. in a 6% CO2 incubator. After incubation, non-migrant cells were removed from the upper face of the Transwell membrane with a cotton swab and migrant cells, those attached to the lower face, were fixed in methanol and visualized with the HEMACOLOR® stain set (EM Diagnostic Systems, Gibbstown, N.J.). Migrating cells were counted in high-power fields (HPFs). HUVECs were suspended in media with the inhibitor for 30 minutes before placement in the chamber. Each determination shown in FIG. 16 represents the average of nine HPF measurements.

Row | inhibition of 125I-mini TyrRS binding to PMNs by unlabeled ligand [6] | Molecule | MP chemotaxis (MP migration) [1] | MP TNFα production [2] | MP tissue factor production [3] | PMN release of myeloperoxidase [4] | concentration dependence of PMN migration [5] | PMN chemotaxis (PMN migration) [5] | HUVEC chemotaxis [7]
1 | did not inhibit the binding | full-length TyrRS: recombinant human tyrosyl-tRNA synthetase, 528 amino acid residues, C-terminal His6 tag (protein, C-terminal His6 tag; Human full-length TyrRS in pET20B, recombinant human tyrosyl-tRNA synthetase, 528 amino acid residues, C-terminal His6 tag) MGDAPSPEEKLHLITRNLQEVLGEEKLKEILKERELKIYWGTATTGKPHVAYFVPMSKIADFLKAGCEVTILFADLHAYLDNMKAPWELLELRVSYYENVIKAMLESIGVPLEKLKFIKGTDYQLSKEYTLDVYRLSSVVTQHDSKKAGAEVVKQVEHPLLSGLLYPGLQALDEEYLKVDAQFGGIDQRKIFTFAEKYLPALGYSKRVHLMNPMVPGLTGSKMSSSEEESKIDLLDRKEDVKKKLKKAFCEPGNVENNGVLSFIKHVLFPLKSEFVILRDEKWGGNKTYTAYVDLEKDFAAEVVHPGDLKNSVEVALNKLLDPIREKFNTPALKKLASAAYPDPSKQKPMAKGPAKNSEPEEVIPSRLDIRVGKIITVEKHPDADSLYVEKIDVGEAEPRTVVSGLVQFVPKEELQDRLVVVLCNLKPQKMRGVESQGMLLCASIEGINRQVEPLDPPAGSAPGEHVFVKGYEKGQPDEELKPKKKVFEKLQADFKISEECIAQWKQTNFMTKLGSISCKSLKGGNISLEHHHHHH | no chemotaxis was observed | none of the properties observed for the carboxyl-terminal domain | none of the properties observed for the carboxyl-terminal domain | none of the properties observed for the carboxyl-terminal domain | – | none of the properties observed for the carboxyl-terminal domain | no chemotaxis was observed
2 | did not inhibit the binding | E. coli TyrRS: E. coli tyrosyl-tRNA synthetase, similar in size to human mini TyrRS (protein) MASSNLIKQLQERGLVAQVTDEEALAERLAQGPIALYCGFDPTADSLHLGHLVPLLCLKRFQQAGHKPVALVGGATGLIGDPSFKAAERKLNTEETVQEWVDKIRKQVAPFLDFDCGENSAIAANNYDWFGNMNVLTFLRDIGKHFSVNQMINKEAVKQRLNREDQGISFTEFSYNLLQGYDFACLNKQYGVVLQIGGSDQWGNITSGIDLTRRLHQNQVFGLTVPLITKADGTKFGKTEGGAVWLDPKKTSPYKFYQFWINTADADVYRFLKFFTFMSIEEINALEEEDKNSGKAPRAQYVLAEQVTRLVHGEEGLQAAKRITECLFSGSLSALSEADFEQLAQDGVPMVEMEKGADLMQALVDSELQPSRGQARKTIASNAITINGEKQSDPEYFFKEEDRLFGRFTLLRRGKKNYCLICWK | inactive in all of the assays | inactive in all of the assays | inactive in all of the assays | inactive in all of the assays | – | inactive in all of the assays; also recorded: no chemotaxis was observed | –

Row | Molecule | inhibition of 125I-mini TyrRS binding to PMNs by unlabeled ligand [6] | MP chemotaxis (MP migration) [1] | MP TNFα production [2] | MP tissue factor production [3] | PMN release of myeloperoxidase [4] | concentration dependence of PMN migration [5] | PMN chemotaxis (PMN migration) [5] | HUVEC chemotaxis [7]
3 | TyrRS carboxyl-terminal domain: residues 359-528 of full-length TyrRS (protein, His6 tag; Human TyrRS carboxyl-terminal domain in pET20B, residues 359-528 of full-length TyrRS) MPEEVIPSRLDIRVGKIITVEKHPDADSLYVEKIDVGEAEPRTVVSGLVQFVPKEELQDRLVVVLCNLKPQKMRGVESQGMLLCASIEGINRQVEPLDPPAGSAPGEHVFVKGYEKGQPDEELKPKKKVFEKLQADFKISEECIAQWKQTNFMTKLGSISCKSLKGGNISLEHHHHHH | neither the TyrRS carboxyl-terminal domain nor EMAP II inhibited | induced MP migration to an extent comparable with that observed for EMAP II | stimulated production | stimulated production | induced the release of myeloperoxidase in PMNs | bell-shaped concentration dependence | induced PMN migration | –
